From the nanobody polyreactivity screen of Harvey et al. (2022)

Experiment: yeast display, Sf9 membrane polyspecificity reagent, FACS + sequencing; frameworks hold sequencing errors
Method in brief: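 Genes from sorted yeast were amplified by colony PCR, read by MiSeq 2 × 250 sequencing and filtered on CDR length. These cells carried a synthetic nanobody library in Saccharomyces cerevisiae BJ5465 and were sorted by FACS into low and high (top ~1%) gates on anti-HA and streptavidin fluorescence. Polyreactivity is labelled according to the gate of origin.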

QVQLVESGGGLVQAGGSLRLSCAASGSIFPGYAMGWYRQAPGKERELVADITSGDTTKYADSVKGRFTISRDNAKNNVYLQMNSLKPEDTAVYYCAADDYLTDFDYWGQGTQVTVSS
polyreactivity (PSR sort gate): low polyreactivity

QVQLVESGGGLVQAGGSLRLSCAASGSTIDGYAMAWYRQAPGKERELVAAISRRGGSTYYADSVKGRFTISRDNATNTVYLLMNSLTPEDTAVYYCNRYPPRRYYARYYSWGQGTQVTVSS
polyreactivity (PSR sort gate): high polyreactivity

QVQLQESGGGLVQAGGSQRLSCAASGYIFYFQYMGWYRQAPGKEREFVAAISDGANTNYADSVKGRFTISRDNAKNTEYLQMNSLKPEDTAVYYCAAGLSTGTIAYGYNYWRQGTQVTVSS
polyreactivity (PSR sort gate): low polyreactivity

QVQLGESGGGLVQAGGSLRLSCAPSGNPFTIYAMGWYRPAPGKERELVASSTGRGGSTYYADSVKGRFTISRDNEKNTVYLQMNSLKPEDTAVDYCNADYNSYLYRPPTTRDYWGQGTQVTVSS
polyreactivity (PSR sort gate): low polyreactivity

QVQLVESGGGLVQAGGSLRLSCAASGFTLEFYAMGWYRQAPGKERELVASISSGGRTNYADSVKGRFTISRDNAKNTVFLQMNSLKPEDTAVYYCAAEYRSWGRYRYRFNYWGQGTQVTVSS
polyreactivity (PSR sort gate): high polyreactivity

LVQLVESGGGLVQAGGSLRLSCAASGSTFGYNAMGWYRQAPGKERELVAAISRGAGSTYYADSVKGRFTITRDNAKYTVYLQMNCLKPEDTAVYYCAKERPRGAPAYYSRIYDYWGQGTQVTVSS
polyreactivity (PSR sort gate): high polyreactivity

QVQLVESGGGLVQAGGSLRLSCAASGFTFRQYAMGWYRQAPGKERELVAAISRSGSRTYYADSVKGRFTISRDNAKNTVYLQMNSLKPEDTAVYYCNAVFSTFTGEYYWGQGSQVTVSS
polyreactivity (PSR sort gate): high polyreactivity

QVQLVESGGGLVQAGGSLRLSCAASGITFWPYAMGWYIQAPGKERELVAAIRASAGRTYYADSVKGRFTISRDNAKNTVYLQMNSLKPEDTAVYYCNAYGRYGKFRVEYDYWGQGTQVTVSS
polyreactivity (PSR sort gate): low polyreactivity

QVQLVESGGGLVQAGGSLRLSCAASGRIFGRNTMGWYRQAPGKERELVAVISWRGGSTYYADSVKGRFTISRDNAKNTVYLQMNSLKPEDTAVYDCNPKYPFSRRGDYWGQGTQVTVSS
polyreactivity (PSR sort gate): high polyreactivity

QVQLVESGGGLVQAGGSLSLSCAASGRIRRYTMGWYRQAPGKERELVASISGNGGSTYYADSVTGRFTISRDNAKNTVYLQMNSLKPEDTAVYDCARTKQEYTFGQFYLGDYWGQGTQVTVSS
polyreactivity (PSR sort gate): low polyreactivity

QVQLEESGGGLVQAGGSLRLSCAASGSTFWPYSMGWYRKATGKERELVAAITLRGGTTYYADSVKGRFTISRDNAMNTVYFQMNSLKPEDTAVYYCNADDYHYFSYDYWGQGTQVTVSS
polyreactivity (PSR sort gate): low polyreactivity

QDQLVESGGRLVQAGGSLRLSCAASGFILSTYAMGWYRQAPGKERELVAAISSSGTSTYYADSVKGRFTISRDNAKNTVYLQMNSLKPEDTAVYYCARVSKRTWSGYYYWGQGTQVTVST
polyreactivity (PSR sort gate): high polyreactivity

QVQLVESGGGLDQAGGSLRLSCAASGLISYRNAMGWYRQAPGKERELVAAISSDGSTYYADSVKGRFTISRDNAKNSVYLQMNSLKPEDTAVYYCNADVFRKFGSPSAYKSHRYDYWGQGTQVTVSS
polyreactivity (PSR sort gate): low polyreactivity

QVQLVESGGGLVQAGGSLRLSCAASGIIFGTYAMGWYRQAPGKERELVAAIRRSGTGTYYADSVKGRFTISRDNAKNTVYLQMNSLKPEDTAVDYCNVVRSYAYDSWGQGTQVTVSS
polyreactivity (PSR sort gate): high polyreactivity

QVQLVESGGGLVQAGGSLRLSCAASGFIFRGYAMGWYRQAPGKERELVAAITSSGGDTYYADSVKGRFTISRDNAKNTVYLQMNSLKPEDTAVYYCNARVYASGTEGDYWGQGTQVTVSS
polyreactivity (PSR sort gate): low polyreactivity

QVQLVESGGGLVHAGGSLRLSCAASGSTFHYYAMGWYRQPPGKERELDAGITSGGGRTYADSVKGRFTISRDNAKITVYLQMNSLNPEDTAVYYCNARPSTGWTIYGVDYWGQGTQVTVSS
polyreactivity (PSR sort gate): low polyreactivity

QVQLVESGGGLVQAGGSLRLSCAASGIIFGYNAMGCYRQAPGKERELVASIDVSGGITYYADSVKGRFTISRDNAKNTVYLQMNSLKPEDTAVYYCAAYRYGSRYGYEYWGQGTQVTVSS
polyreactivity (PSR sort gate): high polyreactivity

QVQLVESGGGLVQAGGCLRISFAASGLTFVWYGMGWYRPATGKERELVAAITSVRTTYYADSVKGRFTISRDNAKNSVYLQMTSLKAEDSGFYYCAAQWAGYGDLPWPYSVIVEFYYWGQGSQVTVSS
polyreactivity (PSR sort gate): low polyreactivity

QVHLVESGGALVQAGASLRLSCAASGFTYGLYSMGWYRQAPGKERELVAVISSSGGSTYYADSVKGRFTISRDNAKNTVYLQMNRLKPEDTAVYYCAAEWLDYKFDVSYDYWGQCTQVTVSS
polyreactivity (PSR sort gate): low polyreactivity

QVQLVESGGCLVQAGGSHRLSCASSGRTFYRKAMGWYRQAPGKERELVAAISSGTSTNYADSVKGRFTISRDYAKNTVYLQMNSLKPEDTAVYYCAKERPRGAPAYYSRFYDYWGQGTQVTVSS
polyreactivity (PSR sort gate): high polyreactivity

QVQLVESGGGLLQAGGSLRLSCAASGRIFSIYAMGWYRPAPGKEREMVAAIRRGGSTSYADSVKGRFTISRDNAKNTVYLLMNSLKPEDTAVYYCAARLRYLGYDYWGQGTQVTVSS
polyreactivity (PSR sort gate): high polyreactivity

QVQLVESGGGLVQAGGSLRLSCAASGRTFFSYVMGWYRPAPGKEREFVAAISRSGGNTYYADSVMGRFTISRDNAKNTVYLQMNSLKPEETAVYYCNKPQRILYDYWGHGTQVTVSS
polyreactivity (PSR sort gate): high polyreactivity

QVQLVESGGGIVQAGGSLRLSCAASGRTIYFNAMGWYRQAPGKERELVATISRSTGSTYYADSVKGRFTISRDNAKNTVYLQMNSLKPEYTAVYYCNATPWGYARMDYWGQGTQVTVSS
polyreactivity (PSR sort gate): low polyreactivity

QVQLVESGGGLFQAGGSLRLSCAPSGSIFQYNAMGWYRQAPGKERELVAAINRRGTRTYYADSVKGRFTISRDNAKNTVYLQMNSLKPEDTAVYYCNKYQSTDVRSSYSAGYGYWGQGTQVTVSS
polyreactivity (PSR sort gate): high polyreactivity

QVQLVESGGGLVQAGGSLRLSCAASGSIFGGNAMGWYRQAPGKERELVAAITYSGGSTYYADSVKGRFTISRDNAKNTVYLQMNSLKPEDTAVYYCAASASVRGGGADQYVIAFDYWGQGTQVTVSS
polyreactivity (PSR sort gate): low polyreactivity

QVQLVESGGGLVQAGGSLRFSCAASGRIFYANAMGWYRQAPGKERELVAAISSGGSTYYADSVKGRFTISRDNAKNTVFLQMNSLKPEDTAVYYCAVYTHKKVRPEYVYWGQGTQVTVSS
polyreactivity (PSR sort gate): low polyreactivity

QVQIVESGGGLVQAGGSLRLSCAASGSTFPTYAMGRYRQAPGKERELVAAITSGSGTNTYYADSVKGRFTISRDNAKNTVYLQMNSLKPEDTAVYYCAKSFRKKYGWGQGTQVTVSS
polyreactivity (PSR sort gate): high polyreactivity

QDQLVESGGGLVQAGGRLRLSCAASGRTFYWNAMGWNRQAPGKEREMVAAITRGGSTTYADSVKGRFTISRDNAKNTVYLQMNSLKPEDTAVYYCNKVYSLWPGYRYDYWGQGTQVTVSS
polyreactivity (PSR sort gate): high polyreactivity

QVQLVESGGGLVQAGGSLRLRCGASGFIFDQYAMGWYRQAPGKERELVAAITYSGGGTYYADSVKGRFTISRDNAKNTVYLQMNSLKPEDTAVYYCADLFGYSLYDAQYDYWGQGTQVTVSS
polyreactivity (PSR sort gate): low polyreactivity

QVQLVESGGGLVQAGGSLRLSCAASGSTFDVYAMGGYRQAPGKERELVAVISSSDGGITYYADSVKGRFTISRDNAKNTVYLQMNSLKPEDTAVYYCNAESFIWLPQYSDYDYWGQGTQVTVSS
polyreactivity (PSR sort gate): high polyreactivity

QVQLVESGGGLVQAGGSLRLSCAASGRTFRVYAMGWYRQAPGKERELVAAINGGGSTNYADSVKGRFTISRDNAKNTVYLQMNSLKPEDTAVYYCIATGRRSKRIYDYWGQGTQVTVSS
polyreactivity (PSR sort gate): high polyreactivity

QVQLVESGGGLVQAGGSLRLSSAASGRTFYSNAMGWYRQAPGKEREFVAAINWSGTSTYADSVKGRFTISRDNAKNTVYLQMNSLKPEDTAVYYCAKTYRTLVRYWGQPFGYWGQGTQVTVSS
polyreactivity (PSR sort gate): high polyreactivity

QVQLVESGGGLVQAGGSLRLSCAASGRTLGYYAMGWYRQAPGKERELVAAITSRTGTTYYADSVKGRFTISRDNAKNTVFLQMNSLKPEDTAVYYCNAAYYSTVLGWYLEYDYWGQGTQVTVSS
polyreactivity (PSR sort gate): high polyreactivity

QVQLVESGGGLVQAGGSLRLSCAASGIIFRANAMGWYRQAPGKERELVAAISGRGSSTTYADSVKGRFTISRDNAKNTVYLQMNSLKPEDTAVYYCAAAGWSARGYNYWGQGTQVTVSS
polyreactivity (PSR sort gate): high polyreactivity

QVQLVESGGGLVQAGGSLRISCAASGRTFGPYAMGWYRQAPGKERELGAAITSSGGSTYYADSVKGRFTISRDNAKNTVYLQMNSLKPEDTAVFYCNKLYWRQSLDYDYWGQGTQVTVSS
polyreactivity (PSR sort gate): low polyreactivity

QVQLVESGGGLVQAGGSLRLSCAASGSIFGINVMGWYRQAPGKERELVAAITSGTSTYYADSVKGLFTISRDNANNTVYLQMNSLKPEDTAVYYCAALWSSRFVVHPQWYDYWGQGTQVTVSS
polyreactivity (PSR sort gate): low polyreactivity

QVQLVESGGGLDQAGGSLRLSCASSGIIFWWNTMGGYRQAPGQESEMVAAISTGGSTNYADSVKGRFTISRDNAKNTVYLQMNSLKPEDTAVYYCNADWTDGDWADMDYWGQGTQVTVSS
polyreactivity (PSR sort gate): low polyreactivity

QVQLVESGGGLVQAGGSLRLSCAASGRTFLYNTRGWYRQAPGKERELVATITGSGASTYYADSVKGRFTISRDNAKNTVYLQMNSLKPEDTAVYYCATDNVYAYDYWGQGTQLTVSS
polyreactivity (PSR sort gate): high polyreactivity

QVQLVESGGGLDQAGGSLRLSCAASGRTFYRNVMGWYRQAHGKERELVAAISSRGGSTYYADSVKGRFTISRDNAKNTVYLQMNSLKPEDTAVYYCAAYYYRRRYGGKYDYWGQGTQVTVSS
polyreactivity (PSR sort gate): high polyreactivity

QVQLVESGGGLVQAGGSLRLSCAASGRIFYVYTMGWYRQAPGKERELVAAISWSGGSTHYADSVKGRFTIARDNAKNTVYLQMNSLKPEDTAVYYCNKGVVSRVAFEYWGQGTQVTVSS
polyreactivity (PSR sort gate): low polyreactivity

QVQLVESGGGLVQAGGSLRLSCAASGRIFLWYAMGWSRQAPGKERELVAGISSGASTYYADSVKGRFTISRDNAKNTVYLQMNSLKPEDTAVYYCAAPYDRLTGWSRYDYWGQGTQVTVSS
polyreactivity (PSR sort gate): high polyreactivity

QVQLVESGGGLVQAGGSLRLSCAASGSIFRGYSMGWYRQAPGKERELVAAINTSGGRTYYADSVKGRFTISRDNAKNTVYLQMNSLKPEDTAVFYCATEYYQAKREDYWGQGTQVTVSS
polyreactivity (PSR sort gate): high polyreactivity

QVQLVESGGGLVQAGGSLRLSCAASGGTFQRYVMGWYIQAPGKERELVAAISRSGSTYADSVKGRFTISRDNAKNTVYLQMNSLKPEDTAFYYCNVVRYYRYYLHGYDYWGQGTQVTVSS
polyreactivity (PSR sort gate): high polyreactivity
